Measured values: patent publication US20240076386A1 (Pfizer, published 2024)

Legend:
[1] = target: T1, mouse E-selectin extracellular domain with 10 His purification tail (mouse, UniProt Q00690 22-557); test: antigen binding ELISA, HRP detection
T1 construct: also called soluable mouse E-selectin extracellular domain; muE-Selctin
T1 sequence: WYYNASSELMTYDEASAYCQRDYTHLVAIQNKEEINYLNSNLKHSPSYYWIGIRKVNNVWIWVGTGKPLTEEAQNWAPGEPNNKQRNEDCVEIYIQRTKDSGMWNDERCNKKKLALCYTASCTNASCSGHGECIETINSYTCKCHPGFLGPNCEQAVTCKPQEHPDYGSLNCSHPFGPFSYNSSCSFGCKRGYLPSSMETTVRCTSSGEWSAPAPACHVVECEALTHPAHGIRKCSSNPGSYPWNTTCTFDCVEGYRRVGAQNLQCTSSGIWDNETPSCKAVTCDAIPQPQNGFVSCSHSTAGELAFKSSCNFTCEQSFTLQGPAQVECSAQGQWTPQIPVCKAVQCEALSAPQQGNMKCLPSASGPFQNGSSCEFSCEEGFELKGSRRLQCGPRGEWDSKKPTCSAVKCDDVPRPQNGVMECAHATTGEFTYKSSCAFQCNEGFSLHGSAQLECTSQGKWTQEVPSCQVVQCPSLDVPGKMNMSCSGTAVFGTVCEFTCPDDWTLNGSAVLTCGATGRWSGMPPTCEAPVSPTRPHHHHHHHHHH
Description: 384-well Maxisorp plates were used to capture the human and mouse His-tagged recombinant E-selectin polypeptides. The polypeptides were incubated with chimeric antibodies of varying concentrations and detected with HRP-labeled anti-human IgG1 antibodies.

[2] = target: T1, mouse E-selectin extracellular domain …; test: SPR, antibody captured, E-selectin analyte
Description: To characterize binding of antibodies to human, cynomolgus monkey, and mouse E-selectin, an antibody was diluted to 0.5 μg/mL in HBS-EP+ and captured by the anti-human IgG immobilized on flow cells 2, 3 and 4 for 30 seconds to 1 minute at a flow rate of 10 μL/minute to achieve a capture level of 70 to 300 RU. Flow cell 1 was used as a reference surface. […] HBS-EP+ buffer cycles collected for each captured antibody were used for double-referencing (Myszka D G. J. Mol. Recognition 1999; 12(5):279-84). At the end of each cycle, the entire anti-IgG surface was regenerated by a 30 second pulse of 3 M MgCl₂ and a 30 second pulse of ionic buffer (1.83 M MgCl₂, 0.92 M Urea, 1.83 M Guanidine HCl, pH 7.4) (Andersson K. Analy. Chem. 1999; 71(13): 2475-81). Kinetic assays were conducted at 25° C. at a collection rate of 10 Hertz (Hz) on a BIAcore™ T200 instrument (GE Healthcare). Rate constants and affinities were determined by fitting the data to a 1:1 binding model in BIAcore™ T200 Evaluation software version 3.0 (GE Healthcare).

[3] = target: T1, mouse E-selectin extracellular domain …; test: AlphaLISA competition vs sialyl Lewis A-PAA-biotin
Description: The neutralization ability of anti-E-selectin antibodies was measured in an AlphaLISA homogenous competition assay. […] This was incubated at room temperature for 15 minutes, followed by addition of 1.4 μL of human, mouse or cynomolgus monkey E-selectin added to a final concentration of 7 nM. This was again incubated at room temperature for 15 minutes. To this, 1.4 μL AlphaLISA beads was added (Ni-donor/SA-acceptor) for a final assay concentration of 10 μg/mL. This was incubated in the dark at room temperate for at least 10 hours. The plates were then read using the AlphaLISA protocol (Envision).

B1: anti-E-selectin antibody 0027 chimera (antibody, human IgG1, kappa, V domains shown)
VH: EVHLHQSGPELGRPGSSVKISCKASGYTFTDYVMNWVRQSPGQGLEWIGWINPEDYSFDSGEKFLERATLTAATSSNTVYIQLSGLTSDDTATYFCVRGGLPGDWFAYWGQGTLVTVSS
VL: DIQMTQSPSFLSASVGDRITINCKTSQNINRYLNWFQQKLGEPPKLLIYNANSLQADIPSRFSGSGSGTDFTLTITSLQPEDVATYFCLQHHFWPYTFGAGTKLELRR
notes: rat VH/VL on effector-null human IgG1 (L234A, L235A, G237A, EU) and human kappa; directed to mouse E-selectin
EC50 [1]: 0.02 nM
Kd [2]: 1.2 nM
koff [2]: 0.000231 s⁻¹
kon [2]: 192000 M⁻¹ s⁻¹
t½ [2]: 50.2 min
EC50 [3]: 1 nM
